In the supplement of paper PMC10567573:

B1: FBF1 (parent)
chain: LQRASILDMRRDHEEQLQRLKLLK

Variants of: B1
Assay: protein stability index of a GFP-peptide fusion (GPS, HEK-293T) (PSI 1-6); higher = more stable
Conditions: c terminus: a fixed tail appended
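Further: lentivirally expressed fusions sorted by FACS into six bins by GFP to DsRed ratio, PSI derived from sequencing read proportions per bin multiplied by bin number.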

**Q.** For LQRASYLDMRRDHEEQLQRLKLLK [I6Y], which protein stability index is on record?
**A.** 3.58

**Q.** With LQRASLLDMRRDHEEQLQRLKLLK [I6L] as the variant, how does the protein stability index read?
**A.** 4.02

**Q.** For LQRASDLDMRRDHEEQLQRLKLLK [I6D], which protein stability index is on record?
**A.** 4.31

**Q.** With LQRASMLDMRRDHEEQLQRLKLLK [I6M] as the variant, how does the protein stability index read?
**A.** 3.94

**Q.** For LQRASSLDMRRDHEEQLQRLKLLK [I6S], which protein stability index is on record?
**A.** 4.15

**Q.** Which protein stability index does the source give for LQRASHLDMRRDHEEQLQRLKLLK [I6H] here?
**A.** 4.19

**Q.** With LQRASVLDMRRDHEEQLQRLKLLK [I6V] as the variant, how does the protein stability index read?
**A.** 3.57

**Q.** With LQRASNLDMRRDHEEQLQRLKLLK [I6N] as the variant, how does the protein stability index read?
**A.** 4.16

**Q.** With LQRASWLDMRRDHEEQLQRLKLLK [I6W] as the variant, how does the protein stability index read?
**A.** 3.62

**Q.** Which protein stability index does the source give for LQRASGLDMRRDHEEQLQRLKLLK [I6G] here?
**A.** 4.28

**Q.** For LQRASPLDMRRDHEEQLQRLKLLK [I6P], which protein stability index is on record?
**A.** 3.94

**Q.** Which protein stability index does the source give for LQRASTLDMRRDHEEQLQRLKLLK [I6T] here?
**A.** 3.66

**Q.** With LQRASALDMRRDHEEQLQRLKLLK [I6A] as the variant, how does the protein stability index read?
**A.** 4.03

**Q.** Which protein stability index does the source give for LQRASCLDMRRDHEEQLQRLKLLK [I6C] here?
**A.** 3.4

**Q.** Which protein stability index does the source give for LQRASKLDMRRDHEEQLQRLKLLK [I6K] here?
**A.** 3.7

**Q.** For LQRASELDMRRDHEEQLQRLKLLK [I6E], which protein stability index is on record?
**A.** 3.98

**Q.** With LQRASQLDMRRDHEEQLQRLKLLK [I6Q] as the variant, how does the protein stability index read?
**A.** 4.06

**Q.** For LQRASFLDMRRDHEEQLQRLKLLK [I6F], which protein stability index is on record?
**A.** 3.51

**Q.** With LQRASICDMRRDHEEQLQRLKLLK [L7C] as the variant, how does the protein stability index read?
**A.** 3.68

**Q.** For LQRASIQDMRRDHEEQLQRLKLLK [L7Q], which protein stability index is on record?
**A.** 3.65

**Q.** Which protein stability index does the source give for LQRASIFDMRRDHEEQLQRLKLLK [L7F] here?
**A.** 2.85

**Q.** For LQRASIHDMRRDHEEQLQRLKLLK [L7H], which protein stability index is on record?
**A.** 4.1

**Q.** Which protein stability index does the source give for LQRASIVDMRRDHEEQLQRLKLLK [L7V] here?
**A.** 3.97

**Q.** With LQRASIEDMRRDHEEQLQRLKLLK [L7E] as the variant, how does the protein stability index read?
**A.** 4.55

**Q.** Which protein stability index does the source give for LQRASIADMRRDHEEQLQRLKLLK [L7A] here?
**A.** 4.22

**Q.** For LQRASIYDMRRDHEEQLQRLKLLK [L7Y], which protein stability index is on record?
**A.** 3.56

**Q.** For LQRASIGDMRRDHEEQLQRLKLLK [L7G], which protein stability index is on record?
**A.** 4.1

**Q.** With LQRASIRDMRRDHEEQLQRLKLLK [L7R] as the variant, how does the protein stability index read?
**A.** 3.6

**Q.** Which protein stability index does the source give for LQRASISDMRRDHEEQLQRLKLLK [L7S] here?
**A.** 4.27

**Q.** For LQRASIDDMRRDHEEQLQRLKLLK [L7D], which protein stability index is on record?
**A.** 4.03

**Q.** For LQRASIIDMRRDHEEQLQRLKLLK [L7I], which protein stability index is on record?
**A.** 3.09

**Q.** Which protein stability index does the source give for LQRASINDMRRDHEEQLQRLKLLK [L7N] here?
**A.** 3.99

**Q.** Which protein stability index does the source give for LQRASIMDMRRDHEEQLQRLKLLK [L7M] here?
**A.** 3.85

**Q.** With LQRASITDMRRDHEEQLQRLKLLK [L7T] as the variant, how does the protein stability index read?
**A.** 3.38

**Q.** With LQRASIPDMRRDHEEQLQRLKLLK [L7P] as the variant, how does the protein stability index read?
**A.** 3.98

**Q.** With LQRASIWDMRRDHEEQLQRLKLLK [L7W] as the variant, how does the protein stability index read?
**A.** 2.9

**Q.** With LQRASIKDMRRDHEEQLQRLKLLK [L7K] as the variant, how does the protein stability index read?
**A.** 3.42

**Q.** Which protein stability index does the source give for LQRASILDMRFDHEEQLQRLKLLK [R11F] here?
**A.** 2.89

**Q.** For LQRASILDMRDDHEEQLQRLKLLK [R11D], which protein stability index is on record?
**A.** 3.69

**Q.** Which protein stability index does the source give for LQRASILDMRPDHEEQLQRLKLLK [R11P] here?
**A.** 3.67

**Q.** Which protein stability index does the source give for LQRASILDMRVDHEEQLQRLKLLK [R11V] here?
**A.** 3.18

**Q.** For LQRASILDMRLDHEEQLQRLKLLK [R11L], which protein stability index is on record?
**A.** 3.44

**Q.** Which protein stability index does the source give for LQRASILDMRIDHEEQLQRLKLLK [R11I] here?
**A.** 2.98

**Q.** With LQRASILDMRNDHEEQLQRLKLLK [R11N] as the variant, how does the protein stability index read?
**A.** 3.1

**Q.** For LQRASILDMRTDHEEQLQRLKLLK [R11T], which protein stability index is on record?
**A.** 3.86

**Q.** With LQRASILDMRADHEEQLQRLKLLK [R11A] as the variant, how does the protein stability index read?
**A.** 3.23

**Q.** For LQRASILDMRKDHEEQLQRLKLLK [R11K], which protein stability index is on record?
**A.** 3.7

**Q.** Which protein stability index does the source give for LQRASILDMRSDHEEQLQRLKLLK [R11S] here?
**A.** 3.43

**Q.** Which protein stability index does the source give for LQRASILDMREDHEEQLQRLKLLK [R11E] here?
**A.** 3.64

**Q.** Which protein stability index does the source give for LQRASILDMRHDHEEQLQRLKLLK [R11H] here?
**A.** 2.88

**Q.** With LQRASILDMRCDHEEQLQRLKLLK [R11C] as the variant, how does the protein stability index read?
**A.** 3.36

**Q.** With LQRASILDMRYDHEEQLQRLKLLK [R11Y] as the variant, how does the protein stability index read?
**A.** 2.68

**Q.** For LQRASILDMRWDHEEQLQRLKLLK [R11W], which protein stability index is on record?
**A.** 2.64

**Q.** Which protein stability index does the source give for LQRASILDMRMDHEEQLQRLKLLK [R11M] here?
**A.** 3.03

**Q.** With LQRASILDMRQDHEEQLQRLKLLK [R11Q] as the variant, how does the protein stability index read?
**A.** 3.59

**Q.** With LQRASILDMRGDHEEQLQRLKLLK [R11G] as the variant, how does the protein stability index read?
**A.** 3.54

**Q.** For LQRASILDVRRDHEEQLQRLKLLK [M9V], which protein stability index is on record?
**A.** 3.61

**Q.** Which protein stability index does the source give for LQRASILDERRDHEEQLQRLKLLK [M9E] here?
**A.** 3.72

**Q.** With LQRASILDGRRDHEEQLQRLKLLK [M9G] as the variant, how does the protein stability index read?
**A.** 4.12

**Q.** For LQRASILDARRDHEEQLQRLKLLK [M9A], which protein stability index is on record?
**A.** 3.84

**Q.** For LQRASILDWRRDHEEQLQRLKLLK [M9W], which protein stability index is on record?
**A.** 3.04

**Q.** With LQRASILDFRRDHEEQLQRLKLLK [M9F] as the variant, how does the protein stability index read?
**A.** 3.22

**Q.** Which protein stability index does the source give for LQRASILDCRRDHEEQLQRLKLLK [M9C] here?
**A.** 2.25

**Q.** For LQRASILDDRRDHEEQLQRLKLLK [M9D], which protein stability index is on record?
**A.** 3.4

**Q.** For LQRASILDRRRDHEEQLQRLKLLK [M9R], which protein stability index is on record?
**A.** 3.72

**Q.** Which protein stability index does the source give for LQRASILDHRRDHEEQLQRLKLLK [M9H] here?
**A.** 3.49

**Q.** Which protein stability index does the source give for LQRASILDTRRDHEEQLQRLKLLK [M9T] here?
**A.** 3.94

**Q.** For LQRASILDYRRDHEEQLQRLKLLK [M9Y], which protein stability index is on record?
**A.** 3.61

**Q.** With LQRASILDIRRDHEEQLQRLKLLK [M9I] as the variant, how does the protein stability index read?
**A.** 3.81

**Q.** With LQRASILDKRRDHEEQLQRLKLLK [M9K] as the variant, how does the protein stability index read?
**A.** 3.9

**Q.** With LQRASILDLRRDHEEQLQRLKLLK [M9L] as the variant, how does the protein stability index read?
**A.** 3.24

**Q.** With LQRASILDPRRDHEEQLQRLKLLK [M9P] as the variant, how does the protein stability index read?
**A.** 3.93

**Q.** Which protein stability index does the source give for LQRASILDSRRDHEEQLQRLKLLK [M9S] here?
**A.** 3.49

**Q.** Which protein stability index does the source give for LQRASILDQRRDHEEQLQRLKLLK [M9Q] here?
**A.** 3.86

**Q.** With LQRASILDNRRDHEEQLQRLKLLK [M9N] as the variant, how does the protein stability index read?
**A.** 3.85

**Q.** For LQRASILDMRRDSEEQLQRLKLLK [H13S], which protein stability index is on record?
**A.** 3.84

**Q.** Which protein stability index does the source give for LQRASILDMRRDYEEQLQRLKLLK [H13Y] here?
**A.** 2.83

**Q.** For LQRASILDMRRDIEEQLQRLKLLK [H13I], which protein stability index is on record?
**A.** 2.54

**Q.** For LQRASILDMRRDEEEQLQRLKLLK [H13E], which protein stability index is on record?
**A.** 4.15

**Q.** Which protein stability index does the source give for LQRASILDMRRDCEEQLQRLKLLK [H13C] here?
**A.** 2.2

**Q.** Which protein stability index does the source give for LQRASILDMRRDLEEQLQRLKLLK [H13L] here?
**A.** 2.36

**Q.** With LQRASILDMRRDGEEQLQRLKLLK [H13G] as the variant, how does the protein stability index read?
**A.** 3.25

**Q.** With LQRASILDMRRDKEEQLQRLKLLK [H13K] as the variant, how does the protein stability index read?
**A.** 2.68

**Q.** Which protein stability index does the source give for LQRASILDMRRDTEEQLQRLKLLK [H13T] here?
**A.** 3.27

**Q.** Which protein stability index does the source give for LQRASILDMRRDQEEQLQRLKLLK [H13Q] here?
**A.** 3.4

**Q.** For LQRASILDMRRDNEEQLQRLKLLK [H13N], which protein stability index is on record?
**A.** 3.95

**Q.** Which protein stability index does the source give for LQRASILDMRRDPEEQLQRLKLLK [H13P] here?
**A.** 3.33

**Q.** For LQRASILDMRRDAEEQLQRLKLLK [H13A], which protein stability index is on record?
**A.** 3.89

**Q.** With LQRASILDMRRDWEEQLQRLKLLK [H13W] as the variant, how does the protein stability index read?
**A.** 2.38

**Q.** With LQRASILDMRRDFEEQLQRLKLLK [H13F] as the variant, how does the protein stability index read?
**A.** 3.17

**Q.** For LQRASILDMRRDMEEQLQRLKLLK [H13M], which protein stability index is on record?
**A.** 3.13

**Q.** Which protein stability index does the source give for LQRASILDMRRDREEQLQRLKLLK [H13R] here?
**A.** 3.19

**Q.** With LQRASILDMRRDDEEQLQRLKLLK [H13D] as the variant, how does the protein stability index read?
**A.** 3.69

**Q.** With LQRASILDMRRDVEEQLQRLKLLK [H13V] as the variant, how does the protein stability index read?
**A.** 2.46
